Biological target: SG7
Assay: flow cytometry on yeast-displayed VISTA
Conditions: chain shown with the change; 4 nM SG7; parent: est. 100; read off a plot

Sequence of SG7 (chain, as listed by the source, chain 1 of 2): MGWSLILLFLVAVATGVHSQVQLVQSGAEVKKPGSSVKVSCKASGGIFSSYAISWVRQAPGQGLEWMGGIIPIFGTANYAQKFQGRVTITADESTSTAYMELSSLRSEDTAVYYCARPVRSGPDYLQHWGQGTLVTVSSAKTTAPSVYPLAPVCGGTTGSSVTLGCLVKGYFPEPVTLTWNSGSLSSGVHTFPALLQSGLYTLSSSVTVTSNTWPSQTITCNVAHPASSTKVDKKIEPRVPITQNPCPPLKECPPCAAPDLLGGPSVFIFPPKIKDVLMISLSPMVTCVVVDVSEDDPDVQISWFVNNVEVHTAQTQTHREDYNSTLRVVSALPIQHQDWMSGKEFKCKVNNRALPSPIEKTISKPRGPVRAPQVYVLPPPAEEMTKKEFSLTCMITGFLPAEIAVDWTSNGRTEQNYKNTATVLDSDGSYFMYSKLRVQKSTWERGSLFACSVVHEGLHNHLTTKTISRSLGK
Sequence of SG7 (chain, as listed by the source, chain 2 of 2): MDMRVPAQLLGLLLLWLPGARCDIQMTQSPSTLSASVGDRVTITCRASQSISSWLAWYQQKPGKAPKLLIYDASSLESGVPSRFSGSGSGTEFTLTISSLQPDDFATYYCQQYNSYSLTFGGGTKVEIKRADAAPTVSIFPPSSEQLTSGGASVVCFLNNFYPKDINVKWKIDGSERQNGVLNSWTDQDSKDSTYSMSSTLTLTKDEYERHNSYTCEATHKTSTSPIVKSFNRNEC

Binder | percent of parent [% WT]
yeast-displayed mVISTA E124A (protein) FKVTTPYSLYVCPEGQNATLTCRILGPVSKGHDVTIYKTWYLSSRGEVQMCKEHRPIRNFTLQHLQHHGSHLKANASHDQPQKHGLELASDHHGNFSITLRNVTPRDSGLYCCLVIELKNHHPAQRFYGSMELQVQAGKGSGSTCMASNEQDSDSITAA | 9
yeast-displayed mVISTA I36A (protein) FKVTTPYSLYVCPEGQNATLTCRILGPVSKGHDVTAYKTWYLSSRGEVQMCKEHRPIRNFTLQHLQHHGSHLKANASHDQPQKHGLELASDHHGNFSITLRNVTPRDSGLYCCLVIELKNHHPEQRFYGSMELQVQAGKGSGSTCMASNEQDSDSITAA | 13
yeast-displayed mVISTA H121A (protein) FKVTTPYSLYVCPEGQNATLTCRILGPVSKGHDVTIYKTWYLSSRGEVQMCKEHRPIRNFTLQHLQHHGSHLKANASHDQPQKHGLELASDHHGNFSITLRNVTPRDSGLYCCLVIELKNAHPEQRFYGSMELQVQAGKGSGSTCMASNEQDSDSITAA | 1
yeast-displayed mVISTA K38A (protein) FKVTTPYSLYVCPEGQNATLTCRILGPVSKGHDVTIYATWYLSSRGEVQMCKEHRPIRNFTLQHLQHHGSHLKANASHDQPQKHGLELASDHHGNFSITLRNVTPRDSGLYCCLVIELKNHHPEQRFYGSMELQVQAGKGSGSTCMASNEQDSDSITAA | 63

From paper PMC7494997
